Assay results published in PMC4144951, “Dissecting the Functional Role of the N-Terminal Domain of the Human Small Heat Shock Protein HSPB6” (PLoS ONE, 2014).

Experiments:
HSPB6 Δ31–40 (human) = HSPB6 Δ31–40 (human) (UniProt O14558); experiment: SEC-coupled SAXS; inline HPLC, Shodex KW404-4F, 20°C, 20 mM HEPES, 150 mM NaCl, pH 7.4, 2.5 mM DTT; 75 µl of 5 mg/ml HSPB6 or equivalent molarity loaded (ΔN11: 111 µl of 3.37 mg/ml); mass at the peak maximum from I0 and Porod volume; number of subunits of the oligomer
HSPB6 Δ31–35 (human) [1] = biological target: HSPB6 Δ31–35 (human) (UniProt O14558); experiment: as above
HSPB6 Δ31–35 (human) [2] = biological target: HSPB6 Δ31–35 (human) (UniProt O14558); experiment: SEC; data not shown; three loaded concentrations, no larger oligomeric species seen; size of the oligomer (dimer)
[3] = biological target: T1, human HSPB6, wild type, full length (human), O14558; experiment: SEC; 100 µl at 2.5, 5 and 10 mg/ml on Superdex 200 10/300 GL, 4°C, 25 mM HEPES pH 7.5, 150 mM NaCl, 2.5 mM DTT; apparent MW from column calibration; the shift of the peak with loaded concentration is read as self-association of the dimers with each other (dimer to higher species); details: remark: other sources report otherwise
T1 chain: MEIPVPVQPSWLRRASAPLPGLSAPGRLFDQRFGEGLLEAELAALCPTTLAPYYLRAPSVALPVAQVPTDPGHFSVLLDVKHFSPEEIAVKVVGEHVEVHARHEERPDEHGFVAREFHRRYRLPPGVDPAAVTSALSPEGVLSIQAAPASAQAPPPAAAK

[4] = biological target: T1, human HSPB6, wild type, full length …; experiment: SEC; data not shown; three loaded concentrations, no larger oligomeric species seen; size of the oligomer (dimer); details: remark: other sources report otherwise
[5] = biological target: T1, human HSPB6, wild type, full length …; experiment: SEC-coupled SAXS; inline HPLC, Shodex KW404-4F, 20°C, 20 mM HEPES, 150 mM NaCl, pH 7.4, 2.5 mM DTT; 75 µl of 5 mg/ml HSPB6 or equivalent molarity loaded (ΔN11: 111 µl of 3.37 mg/ml); mass at the peak maximum from I0 and Porod volume; number of subunits of the oligomer; details: remark: other sources report otherwise
[6] = biological target: the molecule itself; experiment: as above
[7] = biological target: the molecule itself; experiment: SEC; 100 µl at 2.5, 5 and 10 mg/ml on Superdex 200 10/300 GL, 4°C, 25 mM HEPES pH 7.5, 150 mM NaCl, 2.5 mM DTT; apparent MW from column calibration; the shift of the peak with loaded concentration is read as self-association of the dimers with each other (dimer to higher species)
[8] = biological target: the molecule itself; experiment: as above; remark: listed apart in the source
[9] = biological target: human recombinant insulin (human, UniProt P01308 25-54; P01308 90-110); experiment: cell-based or functional assay
[10] = biological target: the molecule itself; experiment: SEC; data not shown; three loaded concentrations, no larger oligomeric species seen; size of the oligomer (dimer)

Chain of human recombinant insulin (P01308 25-54, chain 1 of 2): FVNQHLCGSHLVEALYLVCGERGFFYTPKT
Chain of human recombinant insulin (P01308 90-110, chain 2 of 2): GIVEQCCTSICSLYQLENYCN

HSPB6 Δ31–40 (from UniProt O14558 1-160) (natural protein)
stoichiometry N (HSPB6 Δ31–40 (human)): 2 subunits

HSPB6 Δ31–35 (from UniProt O14558 1-160) (natural protein)
stoichiometry N (HSPB6 Δ31–35 (human) [1]): 2.2 subunits | stoichiometry N (HSPB6 Δ31–35 (human) [2]): 2

B1: human HSPB6, wild type, full length, O14558 1-160 (natural protein)
chain: MEIPVPVQPSWLRRASAPLPGLSAPGRLFDQRFGEGLLEAELAALCPTTLAPYYLRAPSVALPVAQVPTDPGHFSVLLDVKHFSPEEIAVKVVGEHVEVHARHEERPDEHGFVAREFHRRYRLPPGVDPAAVTSALSPEGVLSIQAAPASAQAPPPAAAK
concentration dependence of apparent MW [3]: 1.51 kDa/(mg/ml) | stoichiometry N [4]: 2 | stoichiometry N [5]: 2.2 subunits

B2: HSPB6 F33Y (natural protein, human, UniProt O14558 1-160, looked up)
chain: MEIPVPVQPSWLRRASAPLPGLSAPGRLFDQRYGEGLLEAELAALCPTTLAPYYLRAPSVALPVAQVPTDPGHFSVLLDVKHFSPEEIAVKVVGEHVEVHARHEERPDEHGFVAREFHRRYRLPPGVDPAAVTSALSPEGVLSIQAAPASAQAPPPAAAK
notes: HSPB6, human, full-length protein with the point mutation F33Y; source: E. coli NiCo21 (DE3) with pRARE2, purified (subtractive IMAC, anion exchange, SEC); not shown: SUMO, N-terminal, cleaved
stoichiometry N [6]: 1.9 subunits

B3: HSPB6 F33A (natural protein, human, UniProt O14558 1-160, looked up)
chain: MEIPVPVQPSWLRRASAPLPGLSAPGRLFDQRAGEGLLEAELAALCPTTLAPYYLRAPSVALPVAQVPTDPGHFSVLLDVKHFSPEEIAVKVVGEHVEVHARHEERPDEHGFVAREFHRRYRLPPGVDPAAVTSALSPEGVLSIQAAPASAQAPPPAAAK
notes: HSPB6, human, full-length protein with the point mutation F33A; source: E. coli NiCo21 (DE3) with pRARE2, purified (subtractive IMAC, anion exchange, SEC); not shown: SUMO, N-terminal, cleaved
stoichiometry N [6]: 2.3 subunits

B4: HSPB6 Q31L (natural protein, human, UniProt O14558 1-160, looked up)
chain: MEIPVPVQPSWLRRASAPLPGLSAPGRLFDLRFGEGLLEAELAALCPTTLAPYYLRAPSVALPVAQVPTDPGHFSVLLDVKHFSPEEIAVKVVGEHVEVHARHEERPDEHGFVAREFHRRYRLPPGVDPAAVTSALSPEGVLSIQAAPASAQAPPPAAAK
notes: HSPB6, human, full-length protein with the point mutation Q31L; source: E. coli NiCo21 (DE3) with pRARE2, purified (subtractive IMAC, anion exchange, SEC); not shown: SUMO, N-terminal, cleaved
stoichiometry N [6]: 4.3 subunits | concentration dependence of apparent MW [7]: 1.87 kDa/(mg/ml)

B5: HSPB6 Q31A (natural protein, human, UniProt O14558 1-160, looked up)
chain: MEIPVPVQPSWLRRASAPLPGLSAPGRLFDARFGEGLLEAELAALCPTTLAPYYLRAPSVALPVAQVPTDPGHFSVLLDVKHFSPEEIAVKVVGEHVEVHARHEERPDEHGFVAREFHRRYRLPPGVDPAAVTSALSPEGVLSIQAAPASAQAPPPAAAK
notes: HSPB6, human, full-length protein with the point mutation Q31A; Mixture of dimers and what appear to be tetramers; source: E. coli NiCo21 (DE3) with pRARE2, purified (subtractive IMAC, anion exchange, SEC); not shown: SUMO, N-terminal, cleaved
stoichiometry N [8]: ~4 | stoichiometry N [6]: 4.2 subunits | concentration dependence of apparent MW [7]: 1.1 kDa/(mg/ml)

B6: HSPB6 Δ11–20 (natural protein, human, UniProt O14558 1-160, looked up)
chain: MEIPVPVQPSGLSAPGRLFDQRFGEGLLEAELAALCPTTLAPYYLRAPSVALPVAQVPTDPGHFSVLLDVKHFSPEEIAVKVVGEHVEVHARHEERPDEHGFVAREFHRRYRLPPGVDPAAVTSALSPEGVLSIQAAPASAQAPPPAAAK
notes: HSPB6, human, full-length protein with residues 11-20 deleted; also called ΔN11–20; source: E. coli NiCo21 (DE3) with pRARE2, purified (subtractive IMAC, anion exchange, SEC); not shown: SUMO, N-terminal, cleaved
percentage protection against DTT-induced aggregation of insulin (A340 after 90 min, 37°C), insulin:sHSP 1:0.2 to 1:0.05 [9]: ~50 % decrease | stoichiometry N [6]: 1.8 subunits | concentration dependence of apparent MW [7]: 0.81 kDa/(mg/ml)

B7: HSPB6 Δ21–30 (natural protein, human, UniProt O14558 1-160, looked up)
chain: MEIPVPVQPSWLRRASAPLPQRFGEGLLEAELAALCPTTLAPYYLRAPSVALPVAQVPTDPGHFSVLLDVKHFSPEEIAVKVVGEHVEVHARHEERPDEHGFVAREFHRRYRLPPGVDPAAVTSALSPEGVLSIQAAPASAQAPPPAAAK
notes: HSPB6, human, full-length protein with residues 21-30 deleted; source: E. coli NiCo21 (DE3) with pRARE2, purified (subtractive IMAC, anion exchange, SEC); not shown: SUMO, N-terminal, cleaved
percentage protection against DTT-induced aggregation of insulin (A340 after 90 min, 37°C), insulin:sHSP 1:0.2 to 1:0.05 [9]: ~50 % decrease | stoichiometry N [6]: 2.2 subunits | concentration dependence of apparent MW [7]: 1.29 kDa/(mg/ml)

B8: HSPB6 Δ41–50 (natural protein, human, UniProt O14558 1-160, looked up)
chain: MEIPVPVQPSWLRRASAPLPGLSAPGRLFDQRFGEGLLEAAPYYLRAPSVALPVAQVPTDPGHFSVLLDVKHFSPEEIAVKVVGEHVEVHARHEERPDEHGFVAREFHRRYRLPPGVDPAAVTSALSPEGVLSIQAAPASAQAPPPAAAK
notes: HSPB6, human, full-length protein with residues 41-50 deleted; source: E. coli NiCo21 (DE3) with pRARE2, purified (subtractive IMAC, anion exchange, SEC); not shown: SUMO, N-terminal, cleaved
percentage protection against DTT-induced aggregation of insulin (A340 after 90 min, 37°C), insulin:sHSP 1:0.2 to 1:0.05 [9]: ~50 % decrease | stoichiometry N [6]: 2.3 subunits | concentration dependence of apparent MW [7]: 1.92 kDa/(mg/ml)

B9: HSPB6 Δ51–60 (natural protein, human, UniProt O14558 1-160, looked up)
chain: MEIPVPVQPSWLRRASAPLPGLSAPGRLFDQRFGEGLLEAELAALCPTTLALPVAQVPTDPGHFSVLLDVKHFSPEEIAVKVVGEHVEVHARHEERPDEHGFVAREFHRRYRLPPGVDPAAVTSALSPEGVLSIQAAPASAQAPPPAAAK
notes: HSPB6, human, full-length protein with residues 51-60 deleted; source: E. coli NiCo21 (DE3) with pRARE2, purified (subtractive IMAC, anion exchange, SEC); not shown: SUMO, N-terminal, cleaved
percentage protection against DTT-induced aggregation of insulin (A340 after 90 min, 37°C), insulin:sHSP 1:0.2 to 1:0.05 [9]: ~50 % decrease | stoichiometry N [6]: 1.9 subunits | concentration dependence of apparent MW [7]: 0.31 kDa/(mg/ml)

B10: HSPB6 Δ61–70 (natural protein, human, UniProt O14558 1-160, looked up)
chain: MEIPVPVQPSWLRRASAPLPGLSAPGRLFDQRFGEGLLEAELAALCPTTLAPYYLRAPSVPGHFSVLLDVKHFSPEEIAVKVVGEHVEVHARHEERPDEHGFVAREFHRRYRLPPGVDPAAVTSALSPEGVLSIQAAPASAQAPPPAAAK
notes: HSPB6, human, full-length protein with residues 61-70 deleted; By SAXS closer to a tetramer than to a dimer; source: E. coli NiCo21 (DE3) with pRARE2, purified (subtractive IMAC, anion exchange, SEC); not shown: SUMO, N-terminal, cleaved
stoichiometry N [6]: 3.5 subunits | concentration dependence of apparent MW [7]: 3.4 kDa/(mg/ml)

B11: HSPB6 ΔN11 (domain or fragment, human, UniProt O14558 12-160, looked up)
chain: LRRASAPLPGLSAPGRLFDQRFGEGLLEAELAALCPTTLAPYYLRAPSVALPVAQVPTDPGHFSVLLDVKHFSPEEIAVKVVGEHVEVHARHEERPDEHGFVAREFHRRYRLPPGVDPAAVTSALSPEGVLSIQAAPASAQAPPPAAAK
notes: HSPB6, human, without its first 11 residues (ΔN10 begins with the sole tryptophan; ΔN11 removes it too); Prone to aggregate; could not be concentrated above about 4-5 mg/ml; also called ΔN11-construct; source: E. coli NiCo21 (DE3) with pRARE2, purified (subtractive IMAC, anion exchange, SEC); not shown: SUMO, N-terminal, cleaved
stoichiometry N [6]: 2.5 subunits

B12: HSPB6 Δ36–40 (natural protein, human, UniProt O14558 1-160, looked up)
chain: MEIPVPVQPSWLRRASAPLPGLSAPGRLFDQRFGEELAALCPTTLAPYYLRAPSVALPVAQVPTDPGHFSVLLDVKHFSPEEIAVKVVGEHVEVHARHEERPDEHGFVAREFHRRYRLPPGVDPAAVTSALSPEGVLSIQAAPASAQAPPPAAAK
notes: HSPB6, human, full-length protein with residues 36-40 deleted; source: E. coli NiCo21 (DE3) with pRARE2, purified (subtractive IMAC, anion exchange, SEC); not shown: SUMO, N-terminal, cleaved
stoichiometry N [10]: 2 | concentration dependence of apparent MW [7]: 1.8 kDa/(mg/ml)
